Results published in article PMC6123711, “Conformational signatures in β-arrestin2 reveal natural biased agonism at a G-protein-coupled receptor” (Communications Biology, 2018).

B1: Spexin (peptide, UniProt Q9BT56 27-116, looked up)
Spexin: APQRLLERRNWTPQAMLYLKGAQGRRFISDQSRRKDLSDRPLPERRSPNPQLLTIPEAATILLASLQKSPEDEEKNFDQTRFLEDSLLNW
modifications: Spexin
notes: endogenous peptide ligand of Galr2 and Galr3; synthesized by AnyGen

Columns and labels:
Format in all cases: cell-based
human Galr2 = test: Recruitment of β-arrestin2-FlasH1-3 to Galr2 (NanoBit); settings: NanoBit luminescence
Text: To investigate the effects of GPCR activation on the dynamics of β-arrestin2 conformation, we developed a series of FlasH BRET conformational biosensors[31],[32] by inserting the six-amino-acid motif, CCPGCC, immediately after the amino acid residue 140 (FlasH1), 263 (FlasH2), and 410 (FlasH3), respectively, into the human β-arrestin2 (Fig. 7a, b). Due to its characteristics (e.g., small size, stable, and bright and sustained luminescence)[33], we covalently linked the Nluc to the N terminus of β-arrestin2 during probe design. Each probe (Nluc–β-arrestin2–FlasH1, 2, and 3) was designed to measure BRET between Nluc and a fluorescein arsenical acceptor located at one of three positions along β-arrestin2. […] All three ligands were able to recruit these β-arrestin2–FlasH constructs to induce luminescence signals, although some signals were lower than that of wild-type β-arrestin2 (Fig. 7c). […]
The arrows indicate the time for treatment with the corresponding agonist. d Nluc–β-arrestin2–FlasH1-3 “conformational hallmarks” of β-arrestin2 by binding to Galr2. The bar graphs depict mean ± s.e.m. values of independent biological replicates (n = 3). *P < 0.05, **P < 0.005, statistically significant differences versus Galanin-stimulated control as determined by a one-way analysis of variance (ANOVA). […]

[1] = test system: human β-arrestin2 (Galr2-stimulated); test: Intramolecular FlasH BRET at β-arrestin2 conformational biosensors; settings: HEK293 cells, 10 μM agonist
Text: To investigate the effects of GPCR activation on the dynamics of β-arrestin2 conformation, we developed a series of FlasH BRET conformational biosensors[31],[32] by inserting the six-amino-acid motif, CCPGCC, immediately after the amino acid residue 140 (FlasH1), 263 (FlasH2), and 410 (FlasH3), respectively, into the human β-arrestin2 (Fig. 7a, b). Due to its characteristics (e.g., small size, stable, and bright and sustained luminescence)[33], we covalently linked the Nluc to the N terminus of β-arrestin2 during probe design. Each probe (Nluc–β-arrestin2–FlasH1, 2, and 3) was designed to measure BRET between Nluc and a fluorescein arsenical acceptor located at one of three positions along β-arrestin2. We hypothesized that observing changes in BRET efficiency from multiple sites would produce a β-arrestin2 conformational hallmark characteristic for each ligand[31]. We used a structural complementation assay based on NanoBit technology to test whether the insertion of the FlasH motif would have an effect on β-arrestin2 recruitment. All three ligands were able to recruit these β-arrestin2–FlasH constructs to induce luminescence signals, although some signals were lower than that of wild-type β-arrestin2 (Fig. 7c). […]
Intramolecular BRET at β-arrestin2 conformational biosensors was measured based on the steps and procedures previously described. […]

[2] = target: T1, Galr2–β-arrestin2 complex (Homo sapiens, UniProt O43603); test: Reversal assay for dissociation kinetics
T1 construct: expressed in transfected cells; host or cells: HEK293 cells, transient transfection with Lipofectamine 2000; b62 only says 'the cells'
T1 sequence (O43603 whole entry): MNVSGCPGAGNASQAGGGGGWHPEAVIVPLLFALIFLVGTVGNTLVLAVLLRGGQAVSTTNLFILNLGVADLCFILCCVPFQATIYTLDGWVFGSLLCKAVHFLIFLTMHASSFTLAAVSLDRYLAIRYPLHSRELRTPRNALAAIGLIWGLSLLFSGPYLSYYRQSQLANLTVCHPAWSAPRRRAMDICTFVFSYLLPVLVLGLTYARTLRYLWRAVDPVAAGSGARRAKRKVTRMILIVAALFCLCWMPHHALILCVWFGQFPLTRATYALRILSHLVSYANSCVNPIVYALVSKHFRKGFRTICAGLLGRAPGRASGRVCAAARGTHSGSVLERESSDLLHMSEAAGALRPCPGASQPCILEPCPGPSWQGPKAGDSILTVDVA
T1 sequence (P32121 whole entry partner): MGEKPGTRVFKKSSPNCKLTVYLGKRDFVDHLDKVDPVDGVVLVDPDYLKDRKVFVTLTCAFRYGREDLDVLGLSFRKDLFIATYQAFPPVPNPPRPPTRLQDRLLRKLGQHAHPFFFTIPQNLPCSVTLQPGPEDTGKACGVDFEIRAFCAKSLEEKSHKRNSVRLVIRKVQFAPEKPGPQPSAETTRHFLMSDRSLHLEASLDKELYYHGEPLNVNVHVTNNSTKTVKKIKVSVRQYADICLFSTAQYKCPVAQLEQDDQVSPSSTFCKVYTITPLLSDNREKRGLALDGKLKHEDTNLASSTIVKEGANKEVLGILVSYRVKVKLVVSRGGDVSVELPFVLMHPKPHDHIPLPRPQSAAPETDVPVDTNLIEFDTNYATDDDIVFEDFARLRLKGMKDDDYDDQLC
Protocol: The decay of the luminescent signal may reflect dissociation rate of ligand from Galr2 as the β-arrestin2 response returns to basal levels in washout experiments.
Ligand removal was performed by simply changing the medium containing no ligand and then immediately continue measuring luminescence. Samples with no ligand removal were used as a control. […] The results are expressed as the mean ± s.e.m. values of two independent experiments
One day before transfection, the cells were seeded in 96-well plates at a density of 2.5 × 10^4 cells per well. […] At 24 h post transfection, the medium was aspirated and replaced with 100 μl OPTIMEM and incubated at room temperature. After a 10-min incubation, 25 μl substrate (furimazine) was added, and once every minute subsequent luminescence measurements were taken for 10 min for signal stabilization. A total of 10 μl ligand was then added to each well and luminescence measurements were recorded immediately and once every minute during 10 min for signal stabilization. After that time wells allocated for ligand removal, ligand containing medium was replaced for medium containing only furimazine substrate and no ligand. Immediately continued recording the time course luminescence values once every minute during 1 h.

Molecule	recruitment of β-arrestin2–FlasH1-3 constructs (human Galr2)	ΔNet BRET in Nluc–β-arrestin2–FlasH1-3 versus Galanin ([1]; 2 min, n = 3, each probe)	ΔNet BRET similarity between Spexin and Fmoc-dA4-dQ14 ([1]; FlasH1-3 biosensors)	decrease in luminescence signal after ligand removal ([2]; 10 μM agonist, medium change, two independent experiments)	half-life (t1/2) of Galr2–β-arrestin2 complex luminescence decay after ligand removal ([2]; HEK293 cells, 10 μM agonist, washout, indirect measure of ligand dissociation, mean ± s.e.m. of two independent experiments) [min]	residence time relative to Galanin ([2]; reversal dissociation assay)
Galanin [reference compound]	maximal response					
B1		significantly different from those observed in Galanin	very similar between Spexin and Fmoc-dA4-dQ14 except for the FlasH3 conformational biosensor	rapid decrease in luminescence signal back to basal levels	3.35 ± 0.7	significantly shorter than Galanin
